{"source": "the supplement of paper PMC5998384", "key": {"HeLa Kyoto [1]": {"test_system": "HeLa Kyoto", "test": "solubility in G1/S (NP-40 vs SDS abundance) (log2 ratio); higher = more soluble", "settings": "cell cycle stage: G1/S"}, "HeLa Kyoto [2]": {"test_system": "HeLa Kyoto", "test": "melting temperature (median over replicates), in situ; higher = more thermally stable"}, "HeLa Kyoto [3]": {"test_system": "HeLa Kyoto", "test": "solubility change mitosis vs G1/S (difference of NP-40 vs SDS log2 ratios) (log2 ratio difference); higher = more soluble in mitosis"}, "HeLa Kyoto [4]": {"test_system": "HeLa Kyoto", "test": "thermal stability score vs G1/S (z-score of summed log2 fold changes over temperatures); higher = more thermally stable than in G1/S"}, "[5]": {"settings": "cell cycle stage: early G1 (4.5 h after nocodazole release)"}}}
{"sequence": "MSLVAEAFVSQIAAAEPWPENATLYQQLKGEQILLSDNAASLAVQAFLQMCNLPIKVVCRANAEYMSPSGKVPFIHVGNQVVSELGPIVQFVKAKGHSLSDGLEEVQKAEMKAYMELVNNMLLTAELYLQWCDEATVGEITHARYGSPYPWPLNHILAYQKQWEVKRKMKAIGWGKKTLDQVLEDVDQCCQALSQRLGTQPYFFNKQPTELDALVFGHLYTILTTQLTNDELSEKVKNYSNLLAFCRRIEQHYFEDRGKGRLS [MTX2]", "values": [{"measurement": "solubility in G1/S (log2)", "setting": "HeLa Kyoto [1]", "result": 0.186}, {"measurement": "melting temperature", "setting": "HeLa Kyoto [2]; cell cycle stage: G1/S", "result": 51.4, "unit": "°C"}, {"measurement": "melting temperature", "setting": "HeLa Kyoto [2]; cell cycle stage: mitosis", "result": 52.2, "unit": "°C"}, {"measurement": "solubility change mitosis (log2)", "setting": "HeLa Kyoto [3]", "result": 0.0491}, {"measurement": "thermal stability score", "setting": "HeLa Kyoto [4]; [5]", "result": -0.339}, {"measurement": "thermal stability score", "setting": "HeLa Kyoto [4]; cell cycle stage: mitosis", "result": -0.187}]}
{"sequence": "MSMEDPFFVVKGEVQKAVNTAQGLFQRWTELLQDPSTATREEIDWTTNELRNNLRSIEWDLEDLDETISIVEANPRKFNLDATELSIRKAFITSTRQVVRDMKDQMSTSSVQALAERKNRQALLGDSGSQNWSTGTTDKYGRLDRELQRANSHFIEEQQAQQQLIVEQQDEQLELVSGSIGVLKNMSQRIGGELEEQAVMLEDFSHELESTQSRLDNVMKKLAKVSHMTSDRRQWCAIAILFAVLLVVLILFLVL [STX6]", "values": [{"measurement": "solubility in G1/S (log2)", "setting": "HeLa Kyoto [1]", "result": -0.167}, {"measurement": "melting temperature", "setting": "HeLa Kyoto [2]; cell cycle stage: G1/S", "result": 53.5, "unit": "°C"}, {"measurement": "melting temperature", "setting": "HeLa Kyoto [2]; cell cycle stage: mitosis", "result": 52.9, "unit": "°C"}, {"measurement": "solubility change mitosis (log2)", "setting": "HeLa Kyoto [3]", "result": -0.118}, {"measurement": "thermal stability score", "setting": "HeLa Kyoto [4]; [5]", "result": 1.56}, {"measurement": "thermal stability score", "setting": "HeLa Kyoto [4]; cell cycle stage: mitosis", "result": -0.616}]}
{"sequence": "MSNTTVVPSTAGPGPSGGPGGGGGGGGGGGGTEVIQVTNVSPSASSEQMRTLFGFLGKIDELRLFPPDDSPLPVSSRVCFVKFHDPDSAVVAQHLTNTVFVDRALIVVPYAEGVIPDEAKALSLLAPANAVAGLLPGGGLLPTPNPLTQIGAVPLAALGAPTLDPALAALGLPGANLNSQSLAADQLLKLMSTVDPKLNHVAAGLVSPSLKSDTSSKEIEEAMKRVREAQSLISAAIEPDKKEEKRRHSRSRSRSRRRRTPSSSRHRRSRSRSRRRSHSKSRSRRRSKSPRRRRSHSRERGRRSRSTSKTRDKKKEDKEKKRSKTPPKSYSTARRSRSASRERRRRRSRSGTRSPKKPRSPKRKLSRSPSPRRHKKEKKKDKDKERSRDERERSTSKKKKSKDKEKDRERKSESDKDVKQVTRDYDEEEQGYDSEKEKKEEKKPIETGSPKTKECSVEKGTGDSLRESKVNGDDHHEEDMDMSD [SRSF11]", "values": [{"measurement": "solubility in G1/S (log2)", "setting": "HeLa Kyoto [1]", "result": -0.739}, {"measurement": "melting temperature", "setting": "HeLa Kyoto [2]; cell cycle stage: G1/S", "result": 49.7, "unit": "°C"}, {"measurement": "melting temperature", "setting": "HeLa Kyoto [2]; cell cycle stage: mitosis", "result": 50.4, "unit": "°C"}, {"measurement": "solubility change mitosis (log2)", "setting": "HeLa Kyoto [3]", "result": 0.175}, {"measurement": "thermal stability score", "setting": "HeLa Kyoto [4]; [5]", "result": 1.04}, {"measurement": "thermal stability score", "setting": "HeLa Kyoto [4]; cell cycle stage: mitosis", "result": 3.54}]}
{"sequence": "MSNYSVSLVGPAPWGFRLQGGKDFNMPLTISSLKDGGKAAQANVRIGDVVLSIDGINAQGMTHLEAQNKIKGCTGSLNMTLQRASAAPKPEPVPVQKGEPKEVVKPVPITSPAVSKVTSTNNMAYNKAPRPFGSVSSPKVTSIPSPSSAFTPAHATTSSHASPSPVAAVTPPLFAASGLHANANLSADQSPSALSAGKTAVNVPRQPTVTSVCSETSQELAEGQRRGSQGDSKQQNGPPRKHIVERYTEFYHVPTHSDASKKRLIEDTEDWRPRTGTTQSRSFRILAQITGTEHLKESEADNTKKANNSQEPSPQLASSVASTRSMPESLDSPTSGRPGVTSLTAAAAFKPVGSTGVIKSPSWQRPNQGVPSTGRISNSATYSGSVAPANSALGQTQPSDQDTLVQRAEHIPAGKRTPMCAHCNQVIRGPFLVALGKSWHPEEFNCAHCKNTMAYIGFVEEKGALYCELCYEKFFAPECGRCQRKILGEVISALKQTWHVSCFVCVACGKPIRNNVFHLEDGEPYCETDYYALFGTICHGCEFPIEAGDMFLEALGYTWHDTCFVCSVCCESLEGQTFFSKKDKPLCKKHAHSVNF [PDLIM5]", "values": [{"measurement": "solubility in G1/S (log2)", "setting": "HeLa Kyoto [1]", "result": 0.0686}, {"measurement": "melting temperature", "setting": "HeLa Kyoto [2]; cell cycle stage: G1/S", "result": 52.1, "unit": "°C"}, {"measurement": "melting temperature", "setting": "HeLa Kyoto [2]; cell cycle stage: mitosis", "result": 52.6, "unit": "°C"}, {"measurement": "solubility change mitosis (log2)", "setting": "HeLa Kyoto [3]", "result": 0.0095}, {"measurement": "thermal stability score", "setting": "HeLa Kyoto [4]; [5]", "result": -0.121}, {"measurement": "thermal stability score", "setting": "HeLa Kyoto [4]; cell cycle stage: mitosis", "result": 0.334}]}
{"sequence": "MSPAPDAAPAPASISLFDLSADAPVFQGLSLVSHAPGEALARAPRTSCSGSGERESPERKLLQGPMDISEKLFCSTCDQTFQNHQEQREHYKLDWHRFNLKQRLKDKPLLSALDFEKQSSTGDLSSISGSEDSDSASEEDLQTLDRERATFEKLSRPPGFYPHRVLFQNAQGQFLYAYRCVLGPHQDPPEEAELLLQNLQSRGPRDCVVLMAAAGHFAGAIFQGREVVTHKTFHRYTVRAKRGTAQGLRDARGGPSHSAGANLRRYNEATLYKDVRDLLAGPSWAKALEEAGTILLRAPRSGRSLFFGGKGAPLQRGDPRLWDIPLATRRPTFQELQRVLHKLTTLHVYEEDPREAVRLHSPQTHWKTVREERKKPTEEEIRKICRDEKEALGQNEESPKQGSGSEGEDGFQVELELVELTVGTLDLCESEVLPKRRRRKRNKKEKSRDQEAGAHRTLLQQTQEEEPSTQSSQAVAAPLGPLLDEAKAPGQPELWNALLAACRAGDVGVLKLQLAPSPADPRVLSLLSAPLGSGGFTLLHAAAAAGRGSVVRLLLEAGADPTVQDSRARPPYTVAADKSTRNEFRRFMEKNPDAYDYNKAQVPGPLTPEMEARQATRKREQKAARRQREEQQQRQQEQEEREREEQRRFAALSDREKRALAAERRLAAQLGAPTSPIPDSAIVNTRRCWSCGASLQGLTPFHYLDFSFCSTRCLQDHRRQAGRPSS [ANKZF1]", "values": [{"measurement": "solubility in G1/S (log2)", "setting": "HeLa Kyoto [1]", "result": 0.0804}, {"measurement": "melting temperature", "setting": "HeLa Kyoto [2]; cell cycle stage: G1/S", "result": 49.7, "unit": "°C"}, {"measurement": "melting temperature", "setting": "HeLa Kyoto [2]; cell cycle stage: mitosis", "result": 50.1, "unit": "°C"}, {"measurement": "solubility change mitosis (log2)", "setting": "HeLa Kyoto [3]", "result": -0.104}, {"measurement": "thermal stability score", "setting": "HeLa Kyoto [4]; [5]", "result": 0.638}, {"measurement": "thermal stability score", "setting": "HeLa Kyoto [4]; cell cycle stage: mitosis", "result": 1.02}]}
